According to patent US20220268787A1 (JW BIOSCIENCE, published 2022):

Legend:
Assay in all cases: indirect ELISA, antigen coated at 1 µg/ml
[1] = target: T1, CRS (cysteinyl-tRNA synthetase) (UniProt P49589 1-748, limits assumed)
T1 sequence (looked up): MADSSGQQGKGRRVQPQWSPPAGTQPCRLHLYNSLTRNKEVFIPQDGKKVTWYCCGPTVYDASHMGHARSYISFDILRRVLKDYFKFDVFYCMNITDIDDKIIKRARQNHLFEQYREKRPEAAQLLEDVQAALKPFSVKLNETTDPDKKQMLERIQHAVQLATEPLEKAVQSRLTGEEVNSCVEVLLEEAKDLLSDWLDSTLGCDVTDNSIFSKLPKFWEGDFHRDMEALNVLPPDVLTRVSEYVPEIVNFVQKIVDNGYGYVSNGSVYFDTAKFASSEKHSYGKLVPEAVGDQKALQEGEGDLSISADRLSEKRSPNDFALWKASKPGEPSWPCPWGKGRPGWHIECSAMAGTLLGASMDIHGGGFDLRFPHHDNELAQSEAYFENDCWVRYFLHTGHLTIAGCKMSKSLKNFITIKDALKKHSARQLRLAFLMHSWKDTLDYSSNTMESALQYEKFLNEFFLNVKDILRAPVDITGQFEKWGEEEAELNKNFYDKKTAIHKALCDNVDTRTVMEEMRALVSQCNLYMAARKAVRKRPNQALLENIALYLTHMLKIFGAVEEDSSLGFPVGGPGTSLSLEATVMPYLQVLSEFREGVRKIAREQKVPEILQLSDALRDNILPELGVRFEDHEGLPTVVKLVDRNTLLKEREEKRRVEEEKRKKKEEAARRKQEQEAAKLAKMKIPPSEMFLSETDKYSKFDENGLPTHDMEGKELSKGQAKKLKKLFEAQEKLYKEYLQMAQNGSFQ

[2] = target: KRS (lysyl tRNA synthetase) (UniProt Q15046 1-597, limits assumed)
[3] = target: T2, GRS (glycyl tRNA synthetase) (UniProt P41250 55-739, limits assumed)
T2 sequence (looked up): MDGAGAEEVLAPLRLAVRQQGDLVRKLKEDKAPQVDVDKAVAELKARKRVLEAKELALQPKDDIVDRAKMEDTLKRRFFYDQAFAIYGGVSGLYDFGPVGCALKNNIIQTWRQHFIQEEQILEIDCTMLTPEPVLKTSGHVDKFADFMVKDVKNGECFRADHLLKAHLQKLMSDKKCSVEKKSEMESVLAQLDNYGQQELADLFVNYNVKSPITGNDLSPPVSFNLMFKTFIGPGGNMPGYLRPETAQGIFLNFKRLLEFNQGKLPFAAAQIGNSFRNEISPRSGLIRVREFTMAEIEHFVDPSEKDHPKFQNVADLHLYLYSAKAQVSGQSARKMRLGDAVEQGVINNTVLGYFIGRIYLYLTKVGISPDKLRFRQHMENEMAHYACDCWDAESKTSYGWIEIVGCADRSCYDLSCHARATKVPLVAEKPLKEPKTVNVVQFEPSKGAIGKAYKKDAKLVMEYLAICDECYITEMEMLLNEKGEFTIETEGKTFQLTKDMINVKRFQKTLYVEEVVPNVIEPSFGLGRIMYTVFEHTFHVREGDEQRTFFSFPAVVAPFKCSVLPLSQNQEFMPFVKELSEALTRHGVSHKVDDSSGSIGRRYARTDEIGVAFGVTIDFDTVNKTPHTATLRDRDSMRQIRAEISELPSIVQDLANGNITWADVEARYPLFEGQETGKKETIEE

[4] = target: T3, AIMP1 (aminoacyl tRNA synthase complex-interacting multifunctional protein 1) (UniProt Q12904 1-312, limits assumed)
T3 construct: also called p43
T3 sequence (looked up): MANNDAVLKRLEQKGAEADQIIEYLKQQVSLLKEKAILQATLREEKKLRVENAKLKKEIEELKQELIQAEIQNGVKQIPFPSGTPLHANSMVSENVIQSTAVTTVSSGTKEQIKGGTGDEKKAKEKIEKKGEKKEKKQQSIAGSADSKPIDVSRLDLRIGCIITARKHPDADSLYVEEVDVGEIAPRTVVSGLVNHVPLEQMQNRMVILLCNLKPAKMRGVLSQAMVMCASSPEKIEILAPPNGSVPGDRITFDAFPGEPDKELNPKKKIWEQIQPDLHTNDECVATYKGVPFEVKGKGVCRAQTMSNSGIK

Measured: binding result

KRS (lysyl tRNA synthetase), sequence (Q15046 whole entry): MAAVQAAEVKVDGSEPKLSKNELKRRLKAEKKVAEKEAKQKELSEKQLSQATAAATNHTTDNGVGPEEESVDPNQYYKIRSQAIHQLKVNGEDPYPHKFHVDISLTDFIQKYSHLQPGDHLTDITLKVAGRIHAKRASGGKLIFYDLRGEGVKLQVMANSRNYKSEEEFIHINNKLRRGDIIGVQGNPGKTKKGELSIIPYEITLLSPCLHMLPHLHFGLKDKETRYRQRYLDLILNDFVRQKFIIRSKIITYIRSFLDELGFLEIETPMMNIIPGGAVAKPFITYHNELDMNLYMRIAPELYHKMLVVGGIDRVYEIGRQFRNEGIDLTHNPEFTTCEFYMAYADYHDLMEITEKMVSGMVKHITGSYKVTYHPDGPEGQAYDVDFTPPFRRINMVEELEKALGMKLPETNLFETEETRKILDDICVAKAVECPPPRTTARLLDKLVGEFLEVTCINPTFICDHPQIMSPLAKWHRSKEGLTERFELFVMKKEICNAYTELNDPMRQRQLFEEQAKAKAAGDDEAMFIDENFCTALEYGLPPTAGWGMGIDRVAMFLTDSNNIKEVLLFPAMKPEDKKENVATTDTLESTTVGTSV

B1: 4D10G6 monoclonal antibody (antibody, V domains shown)
VH: EFQLQQSGPELVKPGASVKISCKASGYAFIDYNMNWVKQSNGKSLEWIGVINPNYGTIRYNQKFKGKATLTVDQSSSTAYMQLNSLTSEDSAVYYCAGLLRGYYAMDYWGQGTSVTVSS
VL: QAVVTQESALTTSPGETVTLTCRSSTGAVTTSNYANWVQEKPDHLFTGLIGGTNNRAPGVPARFSGSLIGDKAALTITGAQTEDEAIYFCVLWYSNHWVFGGGTKLTVL
notes: Mouse hybridoma monoclonal (Balb/c), purified from ascites on Protein A or G beads; also called the antibody according to the present invention
no binding (tested: 500 ng/ml): all assays above
